Here are results for one molecule from US20250222128A1, “ANTIBODY DRUG-CONJUGATES TARGETING C-MET AND METHODS OF USE THEREOF” (Zymeworks BC Inc., priority 2022, published 2025).

Assay type in all cases: cell-based
In one assay the test system is H596 lung cancer cells. As to the kind of experiment: cMet pathway agonism by cell proliferation. The conditions noted are these: serum starved cells; titration of test article; 6 days; FIG. 4 and FIG. 6. How it is done: (§1) cMet pathway agonism of the anti-cMet antibody variant v17427 (HetFc, unmodified hinge) and ADCs comprising variant v17427 stochastically cysteine-conjugated to Drug-Linker 001 or MCvcPABC-MMAE at DAR 4 was assessed by cell proliferation and ELISA to measure for AKT phosphorylation as a downstream indicator of cMET activation.
Cell proliferation: Briefly, H596 lung cancer cells were serum starved overnight (37° C., 5% CO2) by replacing the complete growth medium with serum-free RPMI-1640 (Thermo Fisher Scientific Inc., Waltham, MA; Cat. No. A1049101). Cells were then detached with Cell Dissociation Buffer (Thermo Fisher Scientific Inc., Cat. No. 13151014), resuspended in RPMI-1640 supplemented with 1% FBS (v/v) (Thermo Fisher Scientific Inc., Cat. No. 12483-020) and seeded in 384-well tissue culture plates at a density of 1,000 cells/well. […] After incubation, CellTiter-Glo® reagent (Promega Corporation, Madison, WI; Cat. No. G7570) was spiked in all wells and luminescence corresponding to ATP present in each well was measured using a Synergy™ H1 microplate (BioTek Instruments, Winooski, VT). Based on untreated cells (no test article added), % viability values were calculated using ATP measurement RLU values (Relative Light Units) and plotted against test article concentration using GraphPad Prism 8 software (GraphPad Software, San Diego, CA). […]

The test system of assay [1] is AKT phosphorylation in H596 lung cancer cells. As to the kind of experiment: cMet pathway agonism by Phospho-AKT ELISA. The note with it: 100 nM, up to 60 minutes, FIG. 5A. How it is done: as §1
(§2) Phospho-AKT ELISA: Briefly, H441 or H596 lung cancer cells were detached with Cell Dissociation Buffer, seeded in 24-well tissue culture plates with RPMI-1640+10% FBS at a density of 50,000 cells/well, and incubated overnight (37° C., 5% CO2). Cells were then serum starved overnight (37° C., 5% CO2) by replacing the complete growth medium with serum-free RPMI-1640. […] Lysate protein concentration was assessed by a BCA protein assay (Thermo Fisher Scientific Inc., Cat. No. 23223 and 23224). Phospho-AKT levels in 10 μg of lysate was assessed using the PathScan® Phospho-Akt1 (Ser473) Sandwich ELISA Kit (Cell Signaling Technology, Cat. No. 7160C) as per manufacturer's instructions. Absorbance at 450 nm was measured using a Synergy™ H1 microplate (BioTek Instruments, Winooski, VT). Fold AKT phosphorylation was calculated by subtracting background A450 nm signal from all wells using signal blank wells, and then normalizing to the A450 nm signal of untreated cells at each corresponding timepoint. […]

Assay [2] has as its system AKT phosphorylation in H441 lung cancer cells. As to the kind of experiment: cMet pathway agonism by Phospho-AKT ELISA. The note with it: 100 nM, up to 60 minutes, FIG. 5B and FIG. 7. How it is done:
as §1, §2

Entries after “also recorded” stand apart in the source; their conditions may differ.

B1: v17429: control antibody, bivalent version of the anti-cMet antibody MetMab (onartuzumab), HetFc (antibody, chains of the INN, looked up, V domains shown)
VH: EVQLVESGGGLVQPGGSLRLSCAASGYTFTSYWLHWVRQAPGKGLEWVGMIDPSNSDTRFNPNFKDRFTISADTSKNTAYLQMNSLRAEDTAVYYCATYRSYVTPLDYWGQGTLVTVSS
VL: DIQMTQSPSSLSASVGDRVTITCKSSQSLLYTSSQKNYLAWYQQKPGKAPKLLIYWASTRESGVPSRFSGSGSGTDFTLTISSLQPEDFATYYCQQYYAYPWTFGQGTKVEIK
modifications: bivalent IgG, HetFc
In the case of B1, the “H596 proliferation compared to untreated controls” value with H596 lung cancer cells is reported as “dose-dependent increase in H596 proliferation; also recorded: strong dose-dependent increase in proliferation”. Also, the AKT phosphorylation entry is “strong AKT phosphorylation” in assay [1] and “strong AKT phosphorylation; also recorded: strongly induced phosphorylation” in assay [2].
